± gives the uncertainty stated by the source.
B1: Protein maelstrom homolog, residues 3 to 71; numbered along this chain, Q96JY0 (parent)
chain: NRKASRNAYYFFVQEKIPELRRRGLPVARVADAIPYCSSDWALLREEEKEKYAEMAREWRAAQGKDPGP

Variants of: B1
Experiment: abundance fitness (aPCA) (normalised: wild type 0, dead -1); higher = more abundant; growth selection in yeast, the domain comes from the species named
Conditions: Homo sapiens

Q: Which abundance fitness does the source give for NRKASRNAYYFFVQEKIPELRRRGLPGARVADAIPYCSSDWALLREEEKEKYAEMAREWRAAQGKDPGP [V27G] here?
A: The abundance fitness was -0.594 ± 0.078.

Q: For NRKASRNAYYFFVQEKIPELRRRGLPWARVADAIPYCSSDWALLREEEKEKYAEMAREWRAAQGKDPGP [V27W], which abundance fitness is on record?
A: The abundance fitness was -0.584 ± 0.1.

Q: Which abundance fitness does the source give for NRKASRNAYYFFVQEKIPELRRRGLPLARVADAIPYCSSDWALLREEEKEKYAEMAREWRAAQGKDPGP [V27L] here?
A: Its abundance fitness is -0.329 ± 0.062.

Q: With NRKASRNAYYFFVQEKIPELRRRGLPFARVADAIPYCSSDWALLREEEKEKYAEMAREWRAAQGKDPGP [V27F] as the variant, how does the abundance fitness read?
A: The abundance fitness was -0.159 ± 0.18.

Q: Which abundance fitness does the source give for NRKASRNAYYFFVQEKIPELRRRGLPQARVADAIPYCSSDWALLREEEKEKYAEMAREWRAAQGKDPGP [V27Q] here?
A: Its abundance fitness is -1.08 ± 0.21.

Q: For NRKASRNAYYFFVQEKIPELRRRGLPCARVADAIPYCSSDWALLREEEKEKYAEMAREWRAAQGKDPGP [V27C], which abundance fitness is on record?
A: The abundance fitness was -0.026 ± 0.1.

Q: For NRKASRNAYYFFVQEKIPELRRRGLPTARVADAIPYCSSDWALLREEEKEKYAEMAREWRAAQGKDPGP [V27T], which abundance fitness is on record?
A: The abundance fitness was -0.235 ± 0.17.

Q: For NRKASRNAYYFFVQEKIPELRRRGLPMARVADAIPYCSSDWALLREEEKEKYAEMAREWRAAQGKDPGP [V27M], which abundance fitness is on record?
A: The abundance fitness was -0.511 ± 0.1.

Q: For NRKASRNAYYFFVQEKIPELRRRGLPVARKADAIPYCSSDWALLREEEKEKYAEMAREWRAAQGKDPGP [V30K], which abundance fitness is on record?
A: Its abundance fitness is -0.514 ± 0.087.

Q: For NRKASRNAYYFFVQEKIPELRRRGLPVARDADAIPYCSSDWALLREEEKEKYAEMAREWRAAQGKDPGP [V30D], which abundance fitness is on record?
A: The abundance fitness was -0.518 ± 0.17.

Q: Which abundance fitness does the source give for NRKASRNAYYFFVQEKIPELRRRGLPVARAADAIPYCSSDWALLREEEKEKYAEMAREWRAAQGKDPGP [V30A] here?
A: Its abundance fitness is -0.286 ± 0.059.

Q: For NRKASRNAYYFFVQEKIPELRRRGLPVARMADAIPYCSSDWALLREEEKEKYAEMAREWRAAQGKDPGP [V30M], which abundance fitness is on record?
A: The abundance fitness was -0.164 ± 0.09.

Q: With NRKASRNAYYFFVQEKIPELRRRGLPVARRADAIPYCSSDWALLREEEKEKYAEMAREWRAAQGKDPGP [V30R] as the variant, how does the abundance fitness read?
A: Its abundance fitness is -0.614 ± 0.053.

Q: With NRKASRNAYYFFVQEKIPELRRRGLPVARYADAIPYCSSDWALLREEEKEKYAEMAREWRAAQGKDPGP [V30Y] as the variant, how does the abundance fitness read?
A: Its abundance fitness is -0.09 ± 0.13.

Q: For NRKASRNAYYFFVQEKIPELRRRGLPVAREADAIPYCSSDWALLREEEKEKYAEMAREWRAAQGKDPGP [V30E], which abundance fitness is on record?
A: Its abundance fitness is -0.272 ± 0.068.

Q: With NRKASRNAYYFFVQEKIPELRRRGLPVARCADAIPYCSSDWALLREEEKEKYAEMAREWRAAQGKDPGP [V30C] as the variant, how does the abundance fitness read?
A: Its abundance fitness is -0.174 ± 0.093.

Q: For NRKASRNAYYFFVQEKIPELRRRGLPVARPADAIPYCSSDWALLREEEKEKYAEMAREWRAAQGKDPGP [V30P], which abundance fitness is on record?
A: The abundance fitness was 0.113 ± 0.087.

Q: With NRKASRNAYYFFVQEKIPELRRRGLPVARIADAIPYCSSDWALLREEEKEKYAEMAREWRAAQGKDPGP [V30I] as the variant, how does the abundance fitness read?
A: Its abundance fitness is -0.652 ± 0.32.

Q: For NRKASRNAYYFFVQEKIPELRRRGLPVARNADAIPYCSSDWALLREEEKEKYAEMAREWRAAQGKDPGP [V30N], which abundance fitness is on record?
A: The abundance fitness was -0.559 ± 0.24.

Q: Which abundance fitness does the source give for NRKASRNAYYFFVQEKIPELRRRGLPVARQADAIPYCSSDWALLREEEKEKYAEMAREWRAAQGKDPGP [V30Q] here?
A: Its abundance fitness is -0.567 ± 0.093.

Q: Which abundance fitness does the source give for NRKASRNAYYFFVQEKIPELRRRGLPVARHADAIPYCSSDWALLREEEKEKYAEMAREWRAAQGKDPGP [V30H] here?
A: Its abundance fitness is -0.17 ± 0.11.

Q: Which abundance fitness does the source give for NRKASRNAYYFFVQEKIPELRRRGLPVARWADAIPYCSSDWALLREEEKEKYAEMAREWRAAQGKDPGP [V30W] here?
A: The abundance fitness was -0.225 ± 0.067.

Q: Which abundance fitness does the source give for NRKASRNAYYFFVQEKIPELRRRGLPVARGADAIPYCSSDWALLREEEKEKYAEMAREWRAAQGKDPGP [V30G] here?
A: The abundance fitness was -0.607 ± 0.061.

Q: With NRKASRNAYYFFVQEKIPELRRRGLPVARFADAIPYCSSDWALLREEEKEKYAEMAREWRAAQGKDPGP [V30F] as the variant, how does the abundance fitness read?
A: The abundance fitness was -0.226 ± 0.14.

Q: Which abundance fitness does the source give for NRKASRNAYYFFVQEKIPELRRRGLPVARSADAIPYCSSDWALLREEEKEKYAEMAREWRAAQGKDPGP [V30S] here?
A: The abundance fitness was -0.238 ± 0.082.

Q: With NRKASRNAYYFFVQEKIPELRRRGLRVARVADAIPYCSSDWALLREEEKEKYAEMAREWRAAQGKDPGP [P26R] as the variant, how does the abundance fitness read?
A: Its abundance fitness is -0.431 ± 0.25.

Q: Which abundance fitness does the source give for NRKASRNAYYFFVQEKIPELRRRGLPVARVCDAIPYCSSDWALLREEEKEKYAEMAREWRAAQGKDPGP [A31C] here?
A: The abundance fitness was 0.085 ± 0.09.

Q: Which abundance fitness does the source give for NRKASRNAYYFFVQEKIPELRRRGLPVARVGDAIPYCSSDWALLREEEKEKYAEMAREWRAAQGKDPGP [A31G] here?
A: Its abundance fitness is -0.099 ± 0.062.

Q: Which abundance fitness does the source give for NRKASRNAYYFFVQEKIPELRRRGLPVARVQDAIPYCSSDWALLREEEKEKYAEMAREWRAAQGKDPGP [A31Q] here?
A: Its abundance fitness is -0.21 ± 0.11.

Q: For NRKASRNAYYFFVQEKIPELRRRGLPVARVKDAIPYCSSDWALLREEEKEKYAEMAREWRAAQGKDPGP [A31K], which abundance fitness is on record?
A: The abundance fitness was 0.161 ± 0.082.

Q: Which abundance fitness does the source give for NRKASRNAYYFFVQEKIPELRRRGLPVARVPDAIPYCSSDWALLREEEKEKYAEMAREWRAAQGKDPGP [A31P] here?
A: Its abundance fitness is -0.019 ± 0.15.

Q: For NRKASRNAYYFFVQEKIPELRRRGLPVARVWDAIPYCSSDWALLREEEKEKYAEMAREWRAAQGKDPGP [A31W], which abundance fitness is on record?
A: Its abundance fitness is -0.286 ± 0.082.

Q: Which abundance fitness does the source give for NRKASRNAYYFFVQEKIPELRRRGLPVARVSDAIPYCSSDWALLREEEKEKYAEMAREWRAAQGKDPGP [A31S] here?
A: The abundance fitness was -0.047 ± 0.1.

Q: With NRKASRNAYYFFVQEKIPELRRRGLPVARVIDAIPYCSSDWALLREEEKEKYAEMAREWRAAQGKDPGP [A31I] as the variant, how does the abundance fitness read?
A: Its abundance fitness is -0.603 ± 0.27.

Q: With NRKASRNAYYFFVQEKIPELRRRGLPVARVLDAIPYCSSDWALLREEEKEKYAEMAREWRAAQGKDPGP [A31L] as the variant, how does the abundance fitness read?
A: The abundance fitness was -0.291 ± 0.09.

Q: Which abundance fitness does the source give for NRKASRNAYYFFVQEKIPELRRRGLPVARVRDAIPYCSSDWALLREEEKEKYAEMAREWRAAQGKDPGP [A31R] here?
A: The abundance fitness was -0.06 ± 0.058.

Q: For NRKASRNAYYFFVQEKIPELRRRGLPVARVYDAIPYCSSDWALLREEEKEKYAEMAREWRAAQGKDPGP [A31Y], which abundance fitness is on record?
A: Its abundance fitness is -0.178 ± 0.17.

Q: For NRKASRNAYYFFVQEKIPELRRRGLPVARVVDAIPYCSSDWALLREEEKEKYAEMAREWRAAQGKDPGP [A31V], which abundance fitness is on record?
A: Its abundance fitness is -0.1 ± 0.072.

Q: Which abundance fitness does the source give for NRKASRNAYYFFVQEKIPELRRRGLPVARVEDAIPYCSSDWALLREEEKEKYAEMAREWRAAQGKDPGP [A31E] here?
A: Its abundance fitness is 0.131 ± 0.093.

— the Human Domainome abundance scans (Beltran et al. 2025)
